Molecular target: CD40 on human B cells (human, UniProt P25942)
Assay: cell-based or functional assay

expansion of human B cells grown with hdmb CD40 ligand as described for the mouse cells: ~100 fold
B1: high density, membrane bound mouse CD40 ligand (ligand)
chain: MIETYSQPSPRSVATGLPASMKIFMYLLTVFLITQMIGSVLFAVYLHRRLDKVEEEVNLHEDFVFIKKLKRCNKGEGSLSLLNCEEMRRQFEDLVKDITLNKEEKKENSFEMQRGDEDPQIAAHVVSEANSNAASVLQWAKKGYYTMKSNLVMLENGKQLTVKREGLYYVYTQVTFCSNREPSSQRPFIVGLWLKPSSGSERILLKAANTHSSSQLCEQQSVHLGGVFELQAGASVFVNVTEASQVIHRVGFSSFGLLKL
